Protein production data for eleven sequences are collected here from a protein production outcome set (Wang et al. 2014).

A short description of the data set: label from the status in PepcDB records.

For the sequence “MPEWAVILSICGLYLVLVLGLGVWSGRTVSASVDGYVAGDRTLGVIVLYFVLGASVFSSFAFLGAPGWAYSRGAAAFYIIAYGTVGMVPFYFLGPRARQVGEAFGFVTQAEMLAHRYDSRTLSVVLAALSVVAFVPYLTLQMKGAGLLLSTISDGVVPQWLGALAAYGVVLVYVFASGMMAIGWTNTVQGLFMMAVAWFLGLYLPETLHGGIQPMFEAIAASDKAAMLDVPGLAADGSPWSWAGYSSAVIVSAVGFSMWPHLFMRAFTAKSDRTLKLTVVLYPTFQLFLVPILLIGFAGVLAFPGVAPPDTIVPHLLTQIELSPVLVGLVCAGALAASMSSGDAILHAAASIGLRDGIKPLLAAPMTDTRQRQWIRGLVVATSATAYYFAVFSEVGIVALLLGAYGGVAQIFPLVFAAFYWPRATGAGALAGLLAGIGVNTLFLVAPHLRPFPLHEGVYGLAANIAVFLTVSLLTPPHDRDRLRAYTHSDRLAADETVAS”, the protein production entry was “failed”.
To “MPFATNGAPYYEQLVMQIKQQIVQEVLRPGDQLPSIRAMASEMHLNPNTVSKAYQILEHQRAVYTVKGRGTFVSESSQIATDSNAVDDLQTRLQSLLTEAQFLGISAQQVQAWVTTAYQKGESRDEYPS” belongs “failed”.
As to “MPFHGDAQENTWPNSRASPMSLASKLPRFRWLLPAFVVLVGVVLTIVMHWDDRAGLWWKESQASQQQRDESIWLPGYRVVIDAKPLQGLEEEETSDLAYNPATRTLFTVTGKRPLLVELSLTGDVLRTIPLLGLSNPEGVAVLENGNVAVTDERRNTLTIFHVDPQTAELSTKSLAEFPLGNIGKKNKGFEGIAWDPRQQRLLLSKERDPMTLFSWKSDGGPSLSGAMTALPSDDLYMRNVSALSVDPRTGHTLVLSAESHLLLELDEKGEPVSFISLLGGFNGLDSKIPRAEGVAIDDEGTIYMVSEPNLFYVFRKKSGERLATSDADLEHHHHHH”, the protein production entry is “failed”.
To “MPFRTPNIANMTDKKFLPQLDENLPTDVFFHYFFLEAKTETLSHSHPWGQLHLIKQGRLEMEVDKQKMFCPANYAIWTPAHLLHRAFNHNDVEYCAINIEFELSQKLPTSACMFPLTPLLRAIVDDLVERQTTEVLSTEDKYLSHVLIERLSKTNPIENYLPFTDDKLLAPILMQLQENPADDSSLEIWAKRVFSTERTLARRFQKELKMSFNDWRQRAKLAKAMVLLKDAISINEIAYQLGYSQGSSFIKMFRKHTGVTPEQFRKEQQGK” belongs “failed”.
For “MPGAEKGPQPRRPDFTEAGVIQNRAAGRNRSPDPSPDGAQARRRSWRNQGAWLSFVAWPHRRGSATVEPPPLTLRQQLTTVRWLLTGLFAMMLLVFLYFGRDVLMPIVLALLLALMLSPIVRLLRRRKVPEGVAAVVVTLGFAAGMLLIGFTISGPVATWLEDAPSIGKRIAHKLSSLRESFDVVLDASRQVEEAADTSSKDNTDRVVMAQPGLLVKAADSLASGFTTFGVTIVITLFFLASGSMFTEKIVHVMPLFRDKLRVLRVVRDIETEVSSYLLTVAMINAGLGVAVGCALWLAGMPNAFLWGGMAMVLNFLPYIGSMIGISLVALVSFVTFDSLGQALIPPLSYLAVTSVEGQFLTPAIVGRRLELNALSVMLAVLFWAWLWGIVGALIAVPLLVVVKVVCSHFEGLAVVGEFLSARRPFSDQVKDGA” the value was “failed”; for “MPGFDYKFLEKPKRRLLCPLCGKPMREPVQVSTCGHRFCDTCLQEFLSEGVFKCPEDQLPLDYAKIYPDPELEVQVLGLPIRCIHSEEGCRWSGPLRHLQGHLNTCSFNVIPCPNRCPMKLSRRDLPAHLQHDCPKRRLKCEFCGCDFSGEAYESHEGMCPQESVYCENKCGARMMRRLLAQHATSECPKRTQPCTYCTKEFVFDTIQSHQYQCPRLPVACPNQCGVGTVAREDLPGHLKDSCNTALVLCPFKDSGCKHRCPKLAMARHVEESVKPHLAMMCALVSRQRQELQELRRELEELSVGSDGVLIWKIGSYGRRLQEAKAKPNLECFSPAFYTHKYGYKLQVSAFLNGNGSGEGTHLSLYIRVLPGAFDNLLEWPFARRVTFSLLDQSDPGLAKPQHVTETFHPDPNWKNFQKPGTWRGSLDESSLGFGYPKFISHQDIRKRNYVRDDAVFIRAAVELPRKILS”, “not failed”.
For “MPGFLTADLIRARLAPKDFQRGEEYLKDGRVLKAEWVADDEISGQVAGSAGRRYVQTITLENGLGGLSIVGYCSCPVGFACKHVAAVLLTLAREAEPVVPAWDGSFGARPAQAAVSEPTLDPALAEWIAAVAGFEEVGDPEAYPPAIRHRLIYVVGPQGEGGVPQNGEGRSESRGGGRVSAEIEVTLWSIAVLKDGQMSSVERRILSADALVRSPARPAYLRPSDLALVPRLAALRAPGGGNALLLPQISGSELFAAMVASGRCRWGGPDGPTLYPGAARRAKLVWRSDGEGWQRPAIEPEAMAPEAADPETAQPDIGQPYIAQPAIPEIGALDGEAVEAPTRTDPDDASPAPEDGESGQSPEAEAWDLRALPIEPPAYVDPRSGETGPLDLGLDPRLAARLLSAPPIPPTSVDAVRSRLGALLPAAVPVLPAPIDAQPLSVAPQPILRLLALRAVPRMRGAEMPGETTQALVARPCFAYDSVILPADSSEPAPLRMVGASLMRIERDFAAEGTALRQLDRIGPLRVAEALGRVRVEGGISADRLIAPPFLPRGEERERAVDFLRDGVPDLEEAGWRIEIDPDFPVRPVVADSQDWWGGLNAVGGLEGTVGGWLSVGLGVTIDGERVDLLPALLTLLGEGEDLVEREEDELLYLPLGDGRVLPVAVRRLRPIFHALHAVAVPDERAGPGVRLSGRDLGPLALLEEAGKPLGVVWEGAEGARDIARRLAVVGLREAVAPPKGLVGSLRAYQNEGLDWLQFLRANNLGGILADDMGLGKTLQTLAHILVEKESGRLNDPVLIVAPTSVLGAWRREAAQFAPGLRLVVLHGPERAAGFSQMADQDVVVTSYALVRHDLEVLKAQPWHMLVLDEAQTIRNPQTVQYKAVAALKARHRLFLTGTPLENHLGDLWALMDLLMPGLLGDGATFRRVFRGPIEKRGDGPRRRALAVRVRPFILRRTKDEVATDLPAKTEMIDMVELEGGQRDLYEAVRLAAHKAIREVLAEKGLARGRIHILAALTRLRQVCCDPRLVKGGPRKPPPSAKLDRLEEMLRDLVDEGRRTLVFSAFPSMLALVEERLAAASIPWVSLTGETRDRDTPVTRFQSGAVPVFLISLKAGGTGLTLTAADTVIHYDPWWNPAVEAQATDRAHRIGQDKPVFVHKLVAAGTVEERILALQDRKRGLLDGLFDGEAGPSSLLSEEVIEEILRPLG” the value was “failed”; for “MPGIDKLPIEETLEDSPQTRSLLGVFEEDATAISNYMNQLYQAMHRIYDAQNELSAATHLTSKLLKEYEKQRFPLGGDDEVMSSTLQQFSKVIDELSSCHAVLSTQLADAMMFPITQFKERDLKEILTLKEVFQIASNDHDAAINRYSRLSKKRENDKVKYEVTEDVYTSRKKQHQTMMHYFCALNTLQYKKKIALLEPLLGYMQAQISFFKMGSENLNEQLEEFLANIGTSVQNV”, “failed”.
For “MPHFHFSWREKFSVFRMAAEPPEKLVGALVGGLRVLRYLSAAPAGVGVTRVARDLQLNSSTCYNFLKTLVYEGLVTFDESTKTYSIALGLVELAKGVLEQGAYVRLIHPHLEEIARAHRVTATLWQRTSNERVVLVDRADNDSSVRVHMSVGQRLPMYIAALGRCMAANAGLDRDQLEQRFNALRWDDKPPFDEYLAGVQEARKNGYATDAGHYVKGVSTASAAVLDAFGKPVMAISAVGFSAQFTGDALEQLGEDLHERAGRITRALSGGRAGADS”, the protein production entry is given as “failed”.
For “MPIKKPCLKLNLDSLNVVRSEIPQMLSANERLKNNFNILYNQIRQYPAYYFKVASNVPTYSDICQSFSVMYQGFQIVNHSGDVFIHACRENPQSKGDFVGDKFHISIAREQVPLAFQILSGLLFSEDSPIDKWKITDMNRVSQQSRVGIGAQFTLYVKSDQECSQYSALLLHKIRQFIMCLESNLLRSKIAPGEYPASDVRPEDWKYVSYRNELRSDRDGSERQEQMLREEPFYRLMIE” the value was “failed”; for “MPISAHYGLTVLIWGLTWTAIRLQVESASVDLAVFYRFVMASVVALAVLAVTRRLSRLTLGQHGWLFLQGLTLYSVNFLLIYRAAESMTSGLLAVVFSLAALFNAFNGWLWLRTRPTARLYPAVALGVTGVALLFWHDLQLGNATGASILFAVAGTFWFSMGNLVSVKVKAAGVPLFTANAWAMVYGALILGLWCLIQGVEWMLPATSVFWGATVFLAVPGSIVAFYCYITVIQVLGADKAGYAAVLFPVVALSVSTWLEGFEWTTPAMLGALLAILGNYVLFRPGKRQSVSATSVPEQRT”, “failed”.
